# Measured values published in patent US7439329B2, “GEF-H1b: biomarkers, complexes assays and therapeutic uses thereof” (Sugen, Inc., priority 2002, dated 2008).
# B1: GST-GEF-H1S (aa763-921): bacterially expressed GST-fusion protein of amino acids 763-921 of GEF-H1S (protein)
# chain: LRESEQARALLEREAEEARRQLAALGQTEPLPAEAPWARRPVDPRRRSLPAGDALYLSFNPPQPSRGTDRLDLPVTTRSVHRNFEDRERQELGSPEERLQDSSDPDTGSEEEGSSRLSPPHSPRGETLAETWTRDFTRMQDIPEETESRDGEAVASES
# modifications: left off: a dimerising Fc or GST
# notes: bacterially expressed GST-fusion protein of amino acids 763-921 of GEF-H1S
# Assays:
# PAK4 [1] = biological target: T1, PAK4 (Homo sapiens, UniProt O96013); experiment: GST pull-down binding assay with 293T lysates expressing exogenous PAK4; design: expressed in transfected cells; host or cells: 293T; settings: GST-fusion protein on glutathione beads
# Method: FIG. 1: (SEQ ID NOs 32-34 respectively in order of appearance) Direct binding of GEF-H1 to PAK4. Lysates were prepared from 293T cells over expressing (a) myc tagged PAK4 alleles or subdomains and incubated with GST, GST-GEF-H1 (787-921) and GST-Maguin-like bound to Glutathione beads (1,2,3,4 bead designation) or (b) GFP-GEF-H1 and incubated with PAK4 biotinylated peptides (291-355) and (276-324) linked to streptavidin beads. An equivalent amount of beads and excess lysates (500 ug) were used. Eluates of beads and total lysates were analysed by SDS-PAGE and immunoblotted with myc or GEF-H1 antiserum; (c) represents a PAK4 gene schematic outlining the regions of PAK4 used to identify the GEF-H1 interaction domain (GID). d, alignment of the GID defined by the minimal binding region of PAK4 with PAK5 and PAK6.
# To confirm the in vitro interaction of GEF-H1S with PAK4, bacterially expressed GST-fusion proteins were generated with the identical sequences isolated by phage display, encoding either amino acids 763-921 of GEF-H1S or amino acids 385-555 from the Maguin-2-like protein. These fusion proteins were bound to glutathione beads and utilized in binding assays with 293T lysates expressing exogenous PAK4. […]
# Target sequence in this assay (O96013 whole entry, the tested form may be a part): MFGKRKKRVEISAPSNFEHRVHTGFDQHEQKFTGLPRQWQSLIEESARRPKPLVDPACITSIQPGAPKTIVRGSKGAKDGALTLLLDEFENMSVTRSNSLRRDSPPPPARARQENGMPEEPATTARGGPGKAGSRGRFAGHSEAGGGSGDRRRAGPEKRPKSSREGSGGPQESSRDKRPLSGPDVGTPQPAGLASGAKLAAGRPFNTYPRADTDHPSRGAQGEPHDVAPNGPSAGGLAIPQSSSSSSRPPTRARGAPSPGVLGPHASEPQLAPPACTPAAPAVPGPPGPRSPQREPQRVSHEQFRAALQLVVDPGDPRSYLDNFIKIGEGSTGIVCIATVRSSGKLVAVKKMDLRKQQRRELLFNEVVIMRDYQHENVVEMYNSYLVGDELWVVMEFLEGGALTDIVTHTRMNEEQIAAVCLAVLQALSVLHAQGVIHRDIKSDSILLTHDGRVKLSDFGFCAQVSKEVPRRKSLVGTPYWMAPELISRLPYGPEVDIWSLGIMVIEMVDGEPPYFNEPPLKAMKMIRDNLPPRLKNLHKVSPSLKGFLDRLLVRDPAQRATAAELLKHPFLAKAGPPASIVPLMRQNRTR
# PAK4 [2] = biological target: T1, PAK4; experiment: In vitro kinase assay, phosphorylation of substrates by PAK4; format: biochemical; design: Glutathione-s-transferase (GST) fused PAK4 (residues 291-591); GST (N); made in house; settings: autoradiography
# Method: Next examined, was whether GEF-H1 is a PAK4 substrate. In vitro kinase assays were performed using a GEF-H1 GST-fusion protein, a Maguin-2-like GST-fusion protein and GST control protein as substrates for phosphorylation by PAK4.
# The cDNA encoding GEF-H1S obtained in the phage display screen was excised and subcloned into pGEX-4T expression vector to allow for recombinant production of protein for in vitro experiments. The GEF-H1S protein was then mixed with PAK4 kinase and incubated such that PAK4 phosphorylated the GEF-H1S. A portion of this kinase reaction was separated by SDS-PAGE and autoradiographed to visualize the extent of phosphorylation. […] SDS-PAGE is a universal protein separation and visualization technique that is described in Laemmli, Nature, 227(259):680-5, 1970.
# From the phosphorylation experiments described above, two peptides of GEF-H1S were identified as being targets for PAK4-induced phosphorylation. The GEF-H1S target residues were identified by aligning the PAK4 activation loop peptide with the GEF-H1S polypeptide sequence amino acids 762 to 921.
# The following phosphoisomers (phosphate-modified GEF-H1S peptides) were used in PAK4 kinase assays to determine which residues were specifically phosphorylated. Because certain residues were modified to comprise a phosphate moiety (the underlined residues below), they could not be phosphorylated by PAK4. […]
# Target sequence in this assay (O96013 291-591): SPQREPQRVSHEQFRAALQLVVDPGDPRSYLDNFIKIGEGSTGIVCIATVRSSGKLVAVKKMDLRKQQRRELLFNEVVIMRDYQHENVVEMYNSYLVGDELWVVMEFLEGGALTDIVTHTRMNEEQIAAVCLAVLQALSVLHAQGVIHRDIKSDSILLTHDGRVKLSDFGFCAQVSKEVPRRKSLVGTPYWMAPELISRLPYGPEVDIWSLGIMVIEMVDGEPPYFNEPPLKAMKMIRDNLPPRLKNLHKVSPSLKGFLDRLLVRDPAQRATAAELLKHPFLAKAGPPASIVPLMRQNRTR
molecule,measurement,setting,value
B1,binding to full-length myc-tagged PAK4 protein and the kinase domain (amino acids 291-591),PAK4 [1],able to bind strongly
same,phosphorylation by PAK4 in vitro,PAK4 [2],showed phosphorylation
